Measured values: US20210087288A1 (Genentech, published 2021)
“And” between values parts separate entries of the source, which are not always exact repeats. Equal entries are not always repeated.

T1: Cyno TfR extracellular domain (analogous ecd construct) (cynomolgus monkey, UniProt Q5RDH6 87-760 (Pongo abelii entry))
T1 construct: it is not expressly said to be the cyno construct; also called purified cyno TfR
T1 chain: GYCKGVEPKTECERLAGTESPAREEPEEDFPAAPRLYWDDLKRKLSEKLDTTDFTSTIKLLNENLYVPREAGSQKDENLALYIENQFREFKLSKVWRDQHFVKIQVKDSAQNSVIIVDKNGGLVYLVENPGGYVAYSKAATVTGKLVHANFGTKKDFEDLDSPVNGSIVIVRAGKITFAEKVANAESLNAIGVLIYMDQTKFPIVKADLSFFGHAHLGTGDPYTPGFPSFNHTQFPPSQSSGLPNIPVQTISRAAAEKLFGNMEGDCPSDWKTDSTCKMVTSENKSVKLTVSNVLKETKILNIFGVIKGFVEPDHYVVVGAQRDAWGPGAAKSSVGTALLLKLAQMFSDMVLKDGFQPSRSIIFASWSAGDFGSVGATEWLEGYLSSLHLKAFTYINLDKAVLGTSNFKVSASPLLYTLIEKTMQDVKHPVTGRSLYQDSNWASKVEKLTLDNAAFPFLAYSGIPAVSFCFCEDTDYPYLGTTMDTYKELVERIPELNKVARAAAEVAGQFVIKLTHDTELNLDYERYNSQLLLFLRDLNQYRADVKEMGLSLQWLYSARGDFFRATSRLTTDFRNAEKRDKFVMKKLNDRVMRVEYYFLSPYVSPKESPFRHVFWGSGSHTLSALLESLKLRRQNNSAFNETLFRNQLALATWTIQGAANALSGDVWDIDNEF


What was measured:
[1] = target: T2, Human TfR extracellular domain (ecd) containing an N-terminal His tag (human, UniProt P02786 89-760); assay: SPR (Biacore), IgG, TfR captured by anti-His
T2 construct: Biotinylated in some ELISAs; also called huTfR; HuTfR
Protocol: (§1) Antibody affinities were measured using surface plasmon resonance (“SPR”) (Biacore™ GE Healthcare). Anti-His antibody (Qiagen) was coupled onto four different flow cells of a BIACORE™ CM5 sensor chip (Biacore, Inc., Piscataway, N.J.) at between 6000 and 8000 RU. Immobilization was achieved by random coupling through amino groups using a protocol provided by the manufacturer. 10×HBS-P (Biacore, Inc., Piscataway, N.J.) was diluted in water and served as the dilution and running buffer. Purified human or cyno TfR was captured, followed by a 3-fold dilution series of IgG or Fab that was injected at a flow rate of […] using the single cycle kinetics method. Affinity constants were determined using a simple 1:1 Langmuir binding model or using a steady state model when kₒₙ or koff was beyond the detection limit. The equilibrium dissociation constant (KD) was calculated as the ratio of […].
(§2) The affinity of humanized variants for human and cyno TfR was determined by SPR as IgG (FIG. 4E). Selected clones were also analyzed by SPR as Fab to assess monovalent affinity (Table 7). In both cases, the SPR experiments were performed as described above.

[2] = target: T1, Cyno TfR extracellular domain …; assay: SPR (Biacore), IgG, TfR captured by anti-His
Protocol: as §1, §2

[3] = target: T2, Human TfR extracellular domain (ecd) …; assay: SPR, captured His-TfR, Fab analyte
Protocol: as §1, §2

[4] = target: T1, Cyno TfR extracellular domain …; assay: SPR, captured His-TfR, Fab analyte
Protocol: as §1, §2

[5] = target: T1, Cyno TfR extracellular domain …; assay: ratio of KD on cyno TfR to KD on human TfR, SPR
Protocol: as §1, §2

Kd [1] [nM]	Kd [2] [nM]	koff [3]	kon [3]	koff [4] [s⁻¹]	kon [4] [M⁻¹ s⁻¹]	Cy/hu ratio [5]	Binder
4.25	68.1						hu16F6.v2 (antibody, V domains shown) VH: EVQLVESGPGLVKPSETLSLTCTVSGNSITSEYAWNWIRQPPGKGLEWIGYISYSGTTSYNPSLKSRVTISRDTSKNQLSLKLSSVTAADTAVYYCARYGYGNPATRYFDVWGQGTLVTVSS VL: DIQMTQSPSSLSASVGDRVTITCRASKSISKYLAWYQQKPGKAPKLLLYSGSTLQSGVPSRFSGSGSGTDYTLTISSLQPEDFATYYCQQHNEYPWTFGQGTKVEIK
	12.3						hu7A4.v8 (antibody, V domains shown) VH: EVQLVQSGAEVKKPGASVKVSCKGSGYTFTDYAMHWVRQAPGQGLEWMGGISTYFGRTNYNQKFKGRVTMTVDTSISTAYMELSRLRSDDTAVYYCARGLSGNYVMDYWGQGTTVTVSS VL: DIVMTQSPDSLAVSLGERATINCRASESVDSYGNSFMHWYQQKPGQPPKLLIYRASNLESGIPDRFSGSGSGTDFTLTISSLQAEDVAVYYCQQSNEGPPTFGQGTKLEIK

The next lines start with the binder.

Binder	Kd [1] [nM]	Kd [2] [nM]	koff [3]	kon [3]	koff [4] [s⁻¹]	kon [4] [M⁻¹ s⁻¹]	Cy/hu ratio [5]
hu7A4.v5 (antibody, V domains shown) VH: EVQLVQSGAEVKKPGASVKVSCKASGYTFTDYAMHWVRQAPGQGLEWMGGISTYFGRTNYNQKFKGRVTMTRDTSISTAYMELSRLRSDDTAVYYCARGLSGNYVMDYWGQGTTVTVSS VL: DIVMTQSPDSLAVSLGERATINCRASESVDSYGNSFMHWYQQKPGQPPKLLIYRASNLESGIPDRFSGSGSGTDFTLTISSLQAEDVAVYYCQQSNEGPPTFGQGTKLEIK		1.2					
Hu15G11.HC32A Fab (Fab, V domains shown, Purified Fab; also called Y32A Fab) VH: EVQLVQSGAEVKKPGASVKVSCKASGYTFTSAWMHWVRQAPGQRLEWIGEINPTNGRTNYIEKFKSRATLTVDKSASTAYMELSSLRSEDTAVYYCARGTRAYHYWGQGTMVTVSS VL: DIQMTQSPSSLSASVGDRVTITCRASDNLYSNLAWYQQKPGKSPKLLVYDATNLADGVPSRFSGSGSGTDYTLTISSLQPEDFATYYCQHFWGTPLTFGQGTKVEIK			0.00178 s⁻¹	238000 M⁻¹ s⁻¹	0.00851	177000	6.4
Hu15G11.HC52A Fab (Fab, V domains shown, Purified Fab; also called N52A Fab) VH: EVQLVQSGAEVKKPGASVKVSCKASGYTFTSYWMHWVRQAPGQRLEWIGEIAPTNGRTNYIEKFKSRATLTVDKSASTAYMELSSLRSEDTAVYYCARGTRAYHYWGQGTMVTVSS VL: DIQMTQSPSSLSASVGDRVTITCRASDNLYSNLAWYQQKPGKSPKLLVYDATNLADGVPSRFSGSGSGTDYTLTISSLQPEDFATYYCQHFWGTPLTFGQGTKVEIK			0.0236 s⁻¹ and 0.0196 s⁻¹	530000 M⁻¹ s⁻¹ and 564000 M⁻¹ s⁻¹	0.0567	487000	2.6
